From patent US20150165065A1 (AVIDBIOTICS, published 2015)
Numbering of substitutions follows the chain as printed. Read-outs that look alike come from different tables or passages of the source.

B1: M13 phage pKK103 displaying MICA α3 domain with loop 1 insert 5.3sp (designed binder)
chain: TVPPMVNVTSGGSGGGSHLARGDDLTYSGGSGGGVTCRASGFYPWNITLSWRQDGVSLSHDTQQWGDVLPDGNGTYQTWVATRICQGEEQRFTCYMEHSGNHSTHPVPSGK
notes: also called 1-5.3sp; not shown: C-terminal portion of M13 gene III protein, fused at codon position 198
B2: soluble MICA generated by pSW273 (wild type loops, negative control) (ligand)
chain: HHHHHHEPHSLRYNLTVLSWDGSVQSGFLTEVHLDGQPFLRCDRQKCRAKPQGQWAEDVLGNKTWDRETRDLTGNGKDLRMTLAHIKDQKEGLHSLQEIRVCEIHEDNSTRSSQHFYYDGELFLSQNLETEEWTMPQSSRAQTLAMNVRNFLKEDAMKTKTHYHAMHADCLQELRRYLKSGVVLRRTVPPMVNVTRSEASEGNITVTCRASGFYPWNITLSWRQDGVSLSHDTQQWGDVLPDGNGTYQTWVATRICQGEEQRFTCYMEHSGNHSTHPVPSGK
notes: Secreted by 293T cells; six His between signal peptide and residue 1; made from pSW267 (Glu125); also called WT
B3: M13 phage pKK107 displaying MICA α3 domain with tight loop 1 insert T-3.1 (designed binder)
chain: TVPPMVNTSRGDHPRTQCRASGFYPWNITLSWRQDGVSLSHDTQQWGDVLPDGNGTYQTWVATRICQGEEQRFTCYMEHSGNHSTHPVPSGK
notes: also called 1-T-3.1; not shown: C-terminal portion of M13 gene III protein, fused at codon position 198
B4: M13 phage pKK108 displaying MICA α3 domain with tight loop 1 insert T-3.5 (designed binder)
chain: B3 chain with T8G, H13S, P14L, R15I, T16M, Q17H
notes: also called 1-T-3.5; not shown: C-terminal portion of M13 gene III protein, fused at codon position 198
B5: M13 phage pKK110 displaying MICA α3 domain with tight loop 1 insert T-5.1 (designed binder)
chain: B3 chain with T8V, S9T, H13T, P14F, R15T, T16Q, Q17S
notes: also called 1-T-5.1; not shown: C-terminal portion of M13 gene III protein, fused at codon position 198
B6: M13 phage pKK111 displaying MICA α3 domain with tight loop 1 insert T-5.3 (designed binder)
chain: B3 chain with T8H, S9L, R10A, G11R, D12G, H13D, P14D, R15L, Q17Y
notes: also called 1-T-5.3; not shown: C-terminal portion of M13 gene III protein, fused at codon position 198
B7: M13 phage pKK136 displaying MICA α3 domain with loop 1 insert 5.1sp and loop 3 insert 3.2sp (designed binder)
chain: TVPPMVNVTSGGSGGGSVTRGDTFTQSSGGSGGGVTCRASGFYPWNITLSWRQDGVSLSHDTQQWGDVLPDGNGTYQTWVATRISGGSGGGSTSRGDHPRTQSGGSGGGCYMEHSGNHSTHPVPSGK
notes: also called 1-5.1sp/3-3.2sp; not shown: C-terminal portion of M13 gene III protein, fused at codon position 198
B8: M13 phage pKK138 displaying MICA α3 domain with loop 1 insert 5.1sp and loop 3 insert 5.3sp (designed binder)
chain: B7 chain with T93H, S94L, R95A, G96R, D97G, H98D, P99D, R100L, Q102Y
notes: also called 1-5.1sp/3-5.3sp; not shown: C-terminal portion of M13 gene III protein, fused at codon position 198
B9: M13 phage pKK139 displaying MICA α3 domain with loop 1 insert 5.1sp and loop 3 insert 5.1spNH (designed binder)
chain: B7 chain with T93V, S94T, H98T, P99F, R100T, T101Q, Q102S
notes: also called 1-5.1sp/3-5.1spNH; not shown: C-terminal portion of M13 gene III protein, fused at codon position 198
B10: soluble MICA generated from pKK46 (loop 1 insert extended 5.1sp) (designed binder)
chain: HHHHHHEPHSLRYNLTVLSWDGSVQSGFLTEVHLDGQPFLRCDRQKCRAKPQGQWAEDVLGNKTWDRETRDLTGNGKDLRMTLAHIKDQKEGLHSLQEIRVCEIHEDNSTRSSQHFYYDGELFLSQNLETEEWTMPQSSRAQTLAMNVRNFLKEDAMKTKTHYHAMHADCLQELRRYLKSGVVLRRTVPPMVNVTSGGSGGGSVTRGDTFTQSSGGSGGGVTCRASGFYPWNITLSWRQDGVSLSHDTQQWGDVLPDGNGTYQTWVATRICQGEEQRFTCYMEHSGNHSTHPVPSGK
notes: From pKK34 (His6, Glu125); secreted by 293T cells; also called 1-5.1sp

Key:
integrin αVβ5 [1] = target: T1, integrin αVβ5 (UniProt P06756 31-992; P18084 24-719); test: phage ELISA, coated integrin, anti-M13-HRP
T1 construct: Coated on the ELISA plate
Procedure: (§1) The phage vectors were independently transformed into NEBαF′tet competent E. coli cells. Phages produced by the transformed cells were tittered and their concentrations adjusted by dilution to 10¹³ per ml. The ability of the soluble MICA molecules in each of the phage preparations was assayed by an ELISA using the intended target proteins, integrin αVβ3 or αVβ5, as capture agents on the ELISA plate. After the respective integrins were adhered to the bottoms of the wells of the ELISA plate, the wells were washed and blocked, as well known in the field. Each sample (100 μl) of phage preparation was added to wells containing αVβ3 or αVβ5, incubated and washed. The phages captured by the integrins were detected by HRP-conjugated antibody to the M13 phage coat developed with Ultra TMB-ELISA substrate and the optical densities read.

integrin αVβ3 [2] = target: T2, integrin αVβ3 (UniProt P06756 31-992; P05106 27-718); test: phage ELISA, coated integrin, anti-M13-HRP
T2 construct: Coated on the ELISA plate
Procedure: as §1

integrin αVβ5 [3] = target: T1, integrin αVβ5; test: phage ELISA, coated integrin, anti-M13-HRP; remark: listed apart in the source
Procedure: (§2) The ELISA assays of the integrin target-binding of M13 phages displaying α3 domains with binding peptide inserts grafted into more than one loop were performed as follows. After the respective integrins were adhered to the bottoms of the wells of the ELISA plate, the wells were washed and blocked. Each sample (100 μl) of phage preparation was added to wells containing αVβ3 or αVβ5, incubated and washed. The phages captured by the integrins were detected by HRP-conjugated antibody to the M13 phage coat developed with Ultra TMB-ELISA substrate and the optical densities read.

integrin αVβ3 [4] = target: T2, integrin αVβ3; test: phage ELISA, coated integrin, anti-M13-HRP; remark: listed apart in the source
Procedure: as §2

integrin αVβ5 [5] = target: T1, integrin αVβ5; test: ELISA, coated integrin, anti-MICA-HRP
Procedure: (§3) The ability of the soluble MICA molecules in each of the concentrated supernatants to bind target molecules was assayed by an ELISA using the intended target proteins, integrin αVβ3 or αVβ5, as capture agents on the ELISA plate. After the respective integrins were adhered to the bottoms of the wells of the ELISA plate, the wells were washed and blocked, as well known in the field. Each sample (100 μl) of soluble MICA produced and secreted by 293T cells was added to wells containing αVβ3 or αVβ5, incubated and washed. The soluble MICA molecules captured by the integrins were detected by HRP-conjugated antibody to human MICA developed with Ultra TMB-ELISA substrate and the optical densities read. The quantity of soluble MICA in each sample was determined by the MICA-specific ELISA. […] The ELISA signal from a non-binding, negative control MICA (generated by pSW273) was subtracted from each integrin binding signal.

integrin αVβ3 [6] = target: T2, integrin αVβ3; test: ELISA, coated integrin, anti-MICA-HRP
Procedure: as §3

integrin αVβ5 [7] = target: T1, integrin αVβ5; test: ELISA, coated integrin, anti-MICA-HRP; remark: listed apart in the source
Procedure: (§4) ELISA assays of the integrin target-binding of soluble MICA molecules generated from pKK128-131 were performed as follows. After the respective integrins were adhered to the bottoms of the wells of the ELISA plate, the wells were washed and blocked. Each sample (100 μl) of culture supernatant was added to wells containing αVβ3 or αVβ5, incubated and washed. The soluble MICA molecules captured by the integrins were detected by HRP-conjugated antibody to human MICA developed with Ultra TMB-ELISA substrate and the optical densities read. The quantity of soluble MICA in each sample was determined by the MICA-specific ELISA.

integrin αVβ3 [8] = target: T2, integrin αVβ3; test: ELISA, coated integrin, anti-MICA-HRP; remark: listed apart in the source
Procedure: as §4

T2 sequence (P06756 31-992, chain 1 of 2): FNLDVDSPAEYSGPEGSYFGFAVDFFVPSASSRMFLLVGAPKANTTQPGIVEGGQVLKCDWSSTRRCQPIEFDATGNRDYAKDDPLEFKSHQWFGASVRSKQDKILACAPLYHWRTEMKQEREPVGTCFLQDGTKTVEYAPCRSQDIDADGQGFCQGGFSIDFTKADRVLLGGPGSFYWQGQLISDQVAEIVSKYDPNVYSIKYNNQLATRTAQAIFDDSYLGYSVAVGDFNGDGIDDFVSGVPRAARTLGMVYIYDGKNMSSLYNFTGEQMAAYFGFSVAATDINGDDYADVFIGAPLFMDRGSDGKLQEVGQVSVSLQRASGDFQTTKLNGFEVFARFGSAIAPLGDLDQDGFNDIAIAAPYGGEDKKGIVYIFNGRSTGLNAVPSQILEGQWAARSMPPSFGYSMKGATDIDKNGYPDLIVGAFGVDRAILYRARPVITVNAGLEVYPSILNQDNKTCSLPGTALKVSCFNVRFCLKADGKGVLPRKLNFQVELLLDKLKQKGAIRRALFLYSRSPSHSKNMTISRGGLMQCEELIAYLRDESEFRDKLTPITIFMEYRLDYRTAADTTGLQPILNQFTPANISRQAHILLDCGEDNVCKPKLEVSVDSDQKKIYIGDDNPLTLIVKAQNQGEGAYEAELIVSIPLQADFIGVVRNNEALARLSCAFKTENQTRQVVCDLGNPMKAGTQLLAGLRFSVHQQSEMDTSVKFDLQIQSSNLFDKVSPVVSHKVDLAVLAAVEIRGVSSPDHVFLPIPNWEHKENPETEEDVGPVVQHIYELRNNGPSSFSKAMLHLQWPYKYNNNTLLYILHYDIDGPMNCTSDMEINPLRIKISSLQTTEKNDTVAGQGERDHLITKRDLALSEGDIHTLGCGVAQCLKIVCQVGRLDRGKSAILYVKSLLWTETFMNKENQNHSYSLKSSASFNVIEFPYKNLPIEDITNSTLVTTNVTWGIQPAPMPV
T2 sequence (P05106 27-718, chain 2 of 2): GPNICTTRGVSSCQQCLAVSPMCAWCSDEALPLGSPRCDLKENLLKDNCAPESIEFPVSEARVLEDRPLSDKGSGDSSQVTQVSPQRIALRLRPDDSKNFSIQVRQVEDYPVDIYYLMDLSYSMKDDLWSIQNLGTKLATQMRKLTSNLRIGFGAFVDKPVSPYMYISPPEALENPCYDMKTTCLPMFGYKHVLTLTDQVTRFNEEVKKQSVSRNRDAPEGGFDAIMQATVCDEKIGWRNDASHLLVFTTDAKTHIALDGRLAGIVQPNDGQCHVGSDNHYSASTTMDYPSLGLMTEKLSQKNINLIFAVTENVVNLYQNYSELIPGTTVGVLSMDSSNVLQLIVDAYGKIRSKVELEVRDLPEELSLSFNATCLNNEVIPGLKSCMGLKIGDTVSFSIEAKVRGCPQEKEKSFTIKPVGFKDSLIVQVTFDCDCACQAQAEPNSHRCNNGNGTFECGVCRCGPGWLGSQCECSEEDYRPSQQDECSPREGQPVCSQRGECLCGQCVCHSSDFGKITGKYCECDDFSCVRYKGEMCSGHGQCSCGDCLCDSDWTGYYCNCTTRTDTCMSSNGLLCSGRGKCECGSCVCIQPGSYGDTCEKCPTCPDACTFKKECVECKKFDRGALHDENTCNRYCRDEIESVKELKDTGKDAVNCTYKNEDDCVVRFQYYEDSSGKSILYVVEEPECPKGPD
T1 sequence (P06756 31-992, chain 1 of 2): as the sequence (P06756 31-992, chain 1 of 2) above
T1 sequence (P18084 24-719, chain 2 of 2): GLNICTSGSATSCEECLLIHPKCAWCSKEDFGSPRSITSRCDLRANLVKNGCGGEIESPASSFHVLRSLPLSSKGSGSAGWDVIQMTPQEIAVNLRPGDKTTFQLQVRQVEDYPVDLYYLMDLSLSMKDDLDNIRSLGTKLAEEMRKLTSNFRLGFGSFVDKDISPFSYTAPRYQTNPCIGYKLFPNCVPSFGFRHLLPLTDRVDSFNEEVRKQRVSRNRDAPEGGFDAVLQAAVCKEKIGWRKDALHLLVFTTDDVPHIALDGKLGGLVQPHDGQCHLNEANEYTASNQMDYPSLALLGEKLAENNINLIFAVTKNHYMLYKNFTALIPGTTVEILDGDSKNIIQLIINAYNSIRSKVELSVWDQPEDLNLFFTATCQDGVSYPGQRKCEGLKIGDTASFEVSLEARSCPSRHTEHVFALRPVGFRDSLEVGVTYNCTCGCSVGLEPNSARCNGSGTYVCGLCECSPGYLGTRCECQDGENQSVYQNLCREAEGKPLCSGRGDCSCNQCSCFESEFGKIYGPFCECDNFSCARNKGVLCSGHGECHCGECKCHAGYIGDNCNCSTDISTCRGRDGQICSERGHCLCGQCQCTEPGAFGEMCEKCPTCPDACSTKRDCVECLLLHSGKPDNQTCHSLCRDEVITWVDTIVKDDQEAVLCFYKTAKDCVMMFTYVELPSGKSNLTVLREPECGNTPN

| Binder | αvβ5 signal (integrin αVβ5 [1]) | αvβ3 signal (integrin αVβ3 [2]) | αvβ5 signal (integrin αVβ5 [3]) | αvβ3 signal (integrin αVβ3 [4]) | also measured |
| --- | --- | --- | --- | --- | --- |
| B1 | 0.491 OD | 0.688 OD | 0.814 OD | 0.587 OD |  |
| B2 |  |  |  |  | binding result (integrin αVβ5 [5]): no binding; binding result (integrin αVβ3 [6]): no binding; αvβ5 signal (integrin αVβ5 [7]): 0.1 OD; αvβ5 signal/ng (integrin αVβ5 [7]): 6.8 signal/ng MICA; αvβ3 signal (integrin αVβ3 [8]): 0.099 OD; αvβ3 signal/ng (integrin αVβ3 [8]): 6.73 signal/ng MICA |
| B3 | 1.49 OD | 0.999 OD |  |  |  |
| B4 | -0.204 OD | -0.09 OD |  |  |  |
| B5 | 2.56 OD | 1.49 OD |  |  |  |
| B6 | 0.657 OD | 0.707 OD |  |  |  |
| B7 |  |  | 4.28 OD | 2.46 OD |  |
| B8 |  |  | 2.75 OD | 0.886 OD |  |
| B9 |  |  | 5.36 OD | 2.48 OD |  |
| B10 |  |  |  |  | αvβ5 signal (integrin αVβ5 [5]): 1.06 OD; αvβ5 signal/ng (integrin αVβ5 [5]): 25.5 signal/ng MICA; αvβ3 signal (integrin αVβ3 [6]): 0.384 OD; αvβ3 signal/ng (integrin αVβ3 [6]): 9.2 signal/ng MICA; αvβ5 signal (integrin αVβ5 [7]): 0.66 OD; αvβ5 signal/ng (integrin αVβ5 [7]): 13.3 signal/ng MICA; αvβ3 signal (integrin αVβ3 [8]): 0.467 OD; αvβ3 signal/ng (integrin αVβ3 [8]): 9.42 signal/ng MICA |
